We go through seven sequences from the supplement of paper PMC11246515.

± gives the standard deviation of the averaged measurements.

The nature of the data set: total protein half-life in vivo (active degradation + dilution); higher = more stable protein.
The mark [1] stands for this setting: E. coli NCM3722 delta-clpP delta-lon delta-hslV, growth: N-lim chemostat, doubling time 6 h.
[2] abbreviates: E. coli NCM3722 delta-clpP, growth: N-lim chemostat, doubling time 6 h.
[3] abbreviates: E. coli NCM3722 delta-hslV, growth: N-lim chemostat, doubling time 6 h.
Setting [4] is: E. coli NCM3722 delta-lon, growth: N-lim chemostat, doubling time 6 h.
Where [5] appears, read: E. coli NCM3722 delta-smpB, growth: N-lim chemostat, doubling time 6 h.
[6] abbreviates: wild type E. coli NCM3722, growth: C-lim chemostat, doubling time 3 h.
The mark [7] stands for this setting: wild type E. coli NCM3722, growth: C-lim chemostat, doubling time 6 h.
Setting [8] is: wild type E. coli NCM3722, growth: C-lim chemostat, doubling time 12 h.
The mark [9] stands for this setting: wild type E. coli NCM3722, growth: N-lim chemostat, doubling time 6 h.
Where [10] appears, read: wild type E. coli NCM3722, growth: N-lim chemostat, doubling time 12 h.
The mark [11] stands for this setting: wild type E. coli NCM3722, growth: P-lim chemostat, doubling time 6 h.
Setting [12] is: wild type E. coli NCM3722, growth: P-lim chemostat, doubling time 12 h.

On to “MLKKCLPLLLLCTAPVFAKPVLTVYTYDSFAADWGPGPVVKKAFEADCNCELKLVALEDGVSLLNRLRMEGKNSKADVVLGLDNNLLDAASKTGLFAKSGVAADAVNVPGGWNNDTFVPFDYGYFAFVYDKNKLKNPPQSLKELVESDQNWRVIYQDPRTSTPGLGLLLWMQKVYGDDAPQAWQKLAKKTVTVTKGWSEAYGLFLKGESDLVLSYTTSPAYHILEEKKDNYAAANFSEGHYLQVEVAARTAASKQPELAQKFLQFMVSPAFQNAIPTGNWMYPVANVTLPAGFEKLTKPATTLEFTPAEVAAQRQAWISEWQRAVSR”, for which the “total protein half-life in vivo” value was found to be 4.4 ± 0.16 h under setting [1]; 5.26 ± 0.44 h under setting [2]; 6.48 ± 0.38 h under setting [3]; 5.82 ± 0.072 h under setting [4]; 6.33 ± 0.42 h under setting [5]; 3.19 ± 0.21 h under setting [6]. Also, the “total protein half-life in vivo” value came out at 6.11 ± 0.24 h under setting [7]; 11 ± 0.89 h under setting [8]; 6.3 ± 0.13 h under setting [9]; 14 ± 2.2 h under setting [10]; 5.65 ± 0.23 h under setting [11]; 12.9 ± 0.7 h under setting [12].
On to “MAYLVAVTACVSGVAHTYMAAERLEKLCLLEKWGVSIETQGALGTENRLADEDIRRADVALLITDIELAGAERFEHCRYVQCSIYAFLREPQRVMSAVRKVLSAPQQTHLILE”, for which the “total protein half-life in vivo” value under setting [1] came to 4.98 h.
For “MSDLHNESIFITGGGSGLGLALVERFIEEGAQVATLELSAAKVASLRQRFGEHILAVEGNVTCYADYQRAVDQILTRSGKLDCFIGNAGIWDHNASLVNTPAETLETGFHELFNVNVLGYLLGAKACAPALIASEGSMIFTLSNAAWYPGGGGPLYTASKHAATGLIRQLAYELAPKVRVNGVGPCGMASDLRGPQALGQSETSIMQSLTPEKIAAILPLQFFPQPADFTGPYVMLTSRRNNRALSGVMINADAGLAIRGIRHVAAGLDL [P0CI31]”, the “total protein half-life in vivo” value runs as follows: under setting [1], 6.21 ± 0.63 h; under setting [11], 3.6 ± 0.55 h.
As to “MSEQHAQGADAVVDLNNELKTRREKLANLREQGIAFPNDFRRDHTSDQLHAEFDGKENEELEALNIEVAVAGRMMTRRIMGKASFVTLQDVGGRIQLYVARDDLPEGVYNEQFKKWDLGDILGAKGKLFKTKTGELSIHCTELRLLTKALRPLPDKFHGLQDQEARYRQRYLDLISNDESRNTFKVRSQILSGIRQFMVNRGFMEVETPMMQVIPGGAAARPFITHHNALDLDMYLRIAPELYLKRLVVGGFERVFEINRNFRNEGISVRHNPEFTMMELYMAYADYKDLIELTESLFRTLAQDILGKTEVTYGDVTLDFGKPFEKLTMREAIKKYRPETDMADLDNFDSAKAIAESIGIHVEKSWGLGRIVTEIFEEVAEAHLIQPTFITEYPAEVSPLARRNDVNPEITDRFEFFIGGREIGNGFSELNDAEDQAQRFLDQVAAKDAGDDEAMFYDEDYVTALEHGLPPTAGLGIGIDRMVMLFTNSHTIRDVILFPAMRPVK [P0A8N3]”, the “total protein half-life in vivo” value stood at 5.76 ± 0.38 h under setting [1]; 5.45 ± 0.16 h under setting [2]; 5.23 ± 0.14 h under setting [3]; 5.58 ± 0.26 h under setting [4]; 5.19 ± 0.12 h under setting [5]; 3.07 ± 0.11 h under setting [6]. For the same sequence, the “total protein half-life in vivo” value is, setting by setting: under setting [7], 5.894 ± 0.022 h; under setting [8], 10.3 ± 0.74 h; under setting [9], 4.98 ± 0.45 h; under setting [10], 8.8 ± 0.29 h; under setting [11], 5.67 ± 0.29 h; under setting [12], 10.6 ± 0.79 h.
“MKALTARQQEVFDLIRDHISQTGMPPTRAEIAQRLGFRSPNAAEEHLKALARKGVIEIVSGASRGIRLLQEEEEGLPLVGRVAAGEPLLAQQHIEGHYQVDPSLFKPNADFLLRVSGMSMKDIGIMDGDLLAVHKTQDVRNGQVVVARIDDEVTVKRLKKQGNKVELLPENSEFKPIVVDLRQQSFTIEGLAVGVIRNGDWL [P0A7C2]”: the “total protein half-life in vivo” value under setting [1] was found to be 3.01 ± 0.14 h; the “total protein half-life in vivo” value under setting [2] worked out at 2.31 ± 0.15 h; the “total protein half-life in vivo” value under setting [3] stood at 3.18 ± 0.11 h; the “total protein half-life in vivo” value under setting [4] worked out at 3.9 ± 0.1 h; the “total protein half-life in vivo” value under setting [5] worked out at 3.03 ± 0.12 h; the “total protein half-life in vivo” value under setting [6] worked out at 1.91 ± 0.16 h. Further, the “total protein half-life in vivo” value under setting [7] is 3.21 ± 0.11 h; the “total protein half-life in vivo” value under setting [8] stood at 4.65 ± 0.17 h; the “total protein half-life in vivo” value under setting [9] was 3.25 ± 0.28 h; the “total protein half-life in vivo” value under setting [10] was 4.784 ± 0.043 h; the “total protein half-life in vivo” value under setting [11] was 2.68 ± 0.22 h; the “total protein half-life in vivo” value under setting [12] stood at 4.77 ± 0.42 h.
Regarding “MSIKEQTLMTPYLQFDRNQWAALRDSVPMTLSEDEIARLKGINEDLSLEEVAEIYLPLSRLLNFYISSNLRRQAVLEQFLGTNGQRIPYIISIAGSVAVGKSTTARVLQALLSRWPEHRRVELITTDGFLHPNQVLKERGLMKKKGFPESYDMHRLVKFVSDLKSGVPNVTAPVYSHLIYDVIPDGDKTVVQPDILILEGLNVLQSGMDYPHDPHHVFVSDFVDFSIYVDAPEDLLQTWYINRFLKFREGAFTDPDSYFHNYAKLTKEEAIKTAMTLWKEINWLNLKQNILPTRERASLILTKSANHAVEEVRLRK [P0A6I3]”, the “total protein half-life in vivo” value under setting [1] is 4.81 ± 0.35 h; the “total protein half-life in vivo” value under setting [2] turned out to be 5.07 ± 0.72 h; the “total protein half-life in vivo” value under setting [3] worked out at 4.053 ± 0.029 h; the “total protein half-life in vivo” value under setting [4] is 4.54 ± 0.22 h; the “total protein half-life in vivo” value under setting [5] was found to be 4.28 ± 0.39 h; the “total protein half-life in vivo” value under setting [6] is 3.07 ± 0.17 h. The “total protein half-life in vivo” value runs as follows: under setting [7], 5.71 ± 0.51 h; under setting [8], 8.55 ± 0.56 h; under setting [9], 4.41 ± 0.7 h; under setting [10], 7.123 ± 0.068 h; under setting [11], 5.6077 ± 0.0014 h; under setting [12], 12.5 ± 0.64 h.
As to “MITHNFNTLDLLTSPVWIVSPFEEQLIYANSAAKLLMQDLTFSQLRTGPYSVSSQKELPKYLSDLQNQHDIIEILTVQRKEEETALSCRLVLRKLTETEPVIIFEGIEAPATLGLKASRSANYQRKKQGFYARFFLTNSAPMLLIDPSRDGQIVDANLAALNFYGYNHETMCQKHTWEINMLGRRVMPIMHEISHLPGGHKPLNFVHKLADGSTRHVQTYAGPIEIYGDKLMLCIVHDITEQKRLEEQLEHAAHHDAMTGLLNRRQFYHITEPGQMQHLAIAQDYSLLLIDTDRFKHINDLYGHSKGDEVLCALARTLESCARKGDLVFRWGGEEFVLLLPRTPLDTALSLAETIRVSVAKVSISGLPRFTVSIGVAHHEGNESIDELFKRVDDALYRAKNDGRNRVLAA”, the “total protein half-life in vivo” value is, setting by setting: under setting [1], 6.16 h; under setting [2], 1.51 h; under setting [6], 0.79 ± 0.18 h; under setting [7], 1.87 ± 0.062 h; under setting [8], 1.42 ± 0.21 h; under setting [9], 1.31 h.
